Measured values published in patent publication US20150299335A1 (X BODY, published 2015).

How the values were obtained:
HER2 [1] = molecular target: T1, HER2 (UniProt P04626 23-652, limits assumed); assay: saturation binding curve, CPM against Her 2 (nM), 0 to 50 nM, plateau about 470 CPM; the text does not name the assay [upper left graph]
T1 construct: also called receptor tyrosine-protein kinase erbB-2

HER2 [2] = molecular target: T1, HER2; assay: surface plasmon resonance (Biacore Kinetics), table under the sensorgrams [table at the bottom]
HER2 [3] = molecular target: T1, HER2; assay: surface plasmon resonance (Biacore)
HER2 [4] = molecular target: T1, HER2; assay: saturation binding curve, CPM against Her 2 (nM), 0 to 50 nM, plateau about 470 CPM; the text does not name the assay [left graph]

- Kd (HER2 [1]): 1.4 nM
- Kd (HER2 [2]): 1.2 nM
- koff (HER2 [2]): 0.000167 s⁻¹
- kon (HER2 [2]): 139000 M⁻¹ s⁻¹
- Kd (HER2 [3]): 1.2 nM
- kon (HER2 [3]): 139000 M⁻¹ s⁻¹
- Kd (HER2 [4]): 1.4 nM
B1: B8 anti-HER2 VH domain (other)
VH: EVQLVESGAEVKEPGASVKVSCKSSGYSFTGNYMHWVRQAPGQGLEWMGWMNPKSGGTYYAQKFQGRVTMTWDTSISTAYMELSGLTSDDTAVYYCARWARGSTSPHGLDVWGQGTLVTVSS
notes: Stand-alone antibody VH domain with no light chain; also called B8 VH domain; B8 VH
